Data taken from article doi:10.1101/646075 (bioRxiv, 2019).
Read-outs that look alike come from different tables or passages of the source.

How the values were obtained:
[1] = target: apo-transferrin (iron-unbound transferrin) (human) (UniProt P02787); assay: SPR
[2] = target: apo-transferrin (iron-unbound transferrin) (human) (UniProt P02787)
[3] = target: human α-thrombin (human) (UniProt P00734)
[4] = target: T1, apo-transferrin (iron-unbound transferrin) (human, UniProt P02787 20-698); assay: SPR
[5] = target: T1, apo-transferrin (iron-unbound …); assay: SPR; remark: listed apart in the source
[6] = target: T1, apo-transferrin (iron-unbound …)
[7] = target: T1, apo-transferrin (iron-unbound …); assay: SPR; remark: listed apart in the source

## FXII (natural protein)
[1]
  Kd: 40 nM
  koff: 0.0012 s⁻¹
  kon: 30000 M⁻¹ s⁻¹

## human α-thrombin (from UniProt P00734) (enzyme)
[1]
  Kd: 7.7 nM
[2]
  stoichiometry N (Tf per thrombin): 1

## apo-transferrin (iron-unbound transferrin) (from UniProt P02787 20-698) (natural protein)
[3]
  enzymatic activity of thrombin on a chromogenic substrate, Tf at 0.2, 1 and 5 μM: 1.8 fold

B1: fibrinogen (complex)
chain 1: ADSGEGDFLAEGGGVRGPRVVERHQSACKDSDWPFCSDEDWNYKCPSGCRMKGLIDEVNQDFTNRINKLKNSLFEYQKNNKDSHSLTTNIMEILRGDFSSANNRDNTYNRVSEDLRSRIEVLKRKVIEKVQHIQLLQKNVRAQLVDMKRLEVDIDIKIRSCRGSCSRALAREVDLKDYEDQQKQLEQVIAKDLLPSRDRQHLPLIKMKPVPDLVPGNFKSQLQKVPPEWKALTDMPQMRMELERPGGNEITRGGSTSYGTGSETESPRNPSSAGSWNSGSSGPGSTGNRNPGSSGTGGTATWKPGSSGPGSTGSWNSGSSGTGSTGNQNPGSPRPGSTGTWNPGSSERGSAGHWTSESSVSGSTGQWHSESGSFRPDSPGSGNARPNNPDWGTFEEVSGNVSPGTRREYHTEKLVTSKGDKELRTGKEKVTSGSTTTTRRSCSKTVTKTVIGPDGHKEVTKEVVTSEDGSDCPEAMDLGTLSGIGTLDGFRHRHPDEAAFFDTASTGKTFPGFFSPMLGEFVSETESRGSESGIFTNTKESSSHHPGIAEFPSRGKSSSYSKQFTSSTSYNRGDSTFESKSYKMADEAGSEADHEGTHSTKRGHAKSRPVRGIHTSPLGKPSLSP
chain 2: QGVNDNEEGFFSARGHRPLDKKREEAPSLRPAPPPISGGGYRARPAKAAATQKKVERKAPDAGGCLHADPDLGVLCPTGCQLQEALLQQERPIRNSVDELNNNVEAVSQTSSSSFQYMYLLKDLWQKRQKQVKDNENVVNEYSSELEKHQLYIDETVNSNIPTNLRVLRSILENLRSKIQKLESDVSAQMEYCRTPCTVSCNIPVVSGKECEEIIRKGGETSEMYLIQPDSSVKPYRVYCDMNTENGGWTVIQNRQDGSVDFGRKWDPYKQGFGNVATNTDGKNYCGLPGEYWLGNDKISQLTRMGPTELLIEMEDWKGDKVKAHYGGFTVQNEANKYQISVNKYRGTAGNALMDGASQLMGENRTMTIHNGMFFSTYDRDNDGWLTSDPRKQCSKEDGGGWWYNRCHAANPNGRYYWGGQYTWDMAKHGTDDGVVWMNWKGSWYSMRKMSMKIRPFFPQQ
chain 3: YVATRDNCCILDERFGSYCPTTCGIADFLSTYQTKVDKDLQSLEDILHQVENKTSEVKQLIKAIQLTYNPDESSKPNMIDAATLKSRKMLEEIMKYEASILTHDSSIRYLQEIYNSNNQKIVNLKEKVAQLEAQCQEPCKDTVQIHDITGKDCQDIANKGAKQSGLYFIKPLKANQQFLVYCEIDGSGNGWTVFQKRLDGSVDFKKNWIQYKEGFGHLSPTGTTEFWLGNEKIHLISTQSAIPYALRVELEDWNGRTSTADYAMFKVGPEADKYRLTYAYFAGGDAGDAFDGFDFGDDPSDKFFTSHNGMQFSTWDNDNDKFEGNCAEQDGSGWWMNKCHAGHLNGVYYQGGTYSKASTPNGYDNGIIWATWKTRWYSMKKTTMKIIPFNRLTIGEGQQHHLGGAKQAGDV
[4]
  stoichiometry N: 4 apo-Tf per fibrinogen

## RIGKHSRTRYERNIEK [TH16]
[5]
  Kd: 97 nM
  koff: 0.0003 s⁻¹
  kon: 3100 M⁻¹ s⁻¹

B2: human α-FXIIa (enzyme)
chain 1: IPPWEAPKEHKYKAEEHTVVLTVTGEPCHFPFQYHRQLYHKCTHKGRPGPQPWCATTPNFDQDQRWGYCLEPKKVKDHCSKHSPCQKGGTCVNMPSGPHCLCPQHLTGNHCQKEKCFEPQLLRFFHKNEIWYRTEQAAVARCQCKGPDAHCQRLASQACRTNPCLHGGRCLEVEGHRLCHCPVGYTGAFCDVDTKASCYDGRGLSYRGLARTTLSGAPCQPWASEATYRNVTAEQARNWGLGGHAFCRNPDNDIRPWCFVLNRDRLSWEYCDLAQCQTPTQAAPPTPVSPRLHVPLMPAQPAPPKPQPTTRTPPQSQTPGALPAKREQPPSLTRNGPLSCGQRLRKSLSSMTR
chain 2: VVGGLVALRGAHPYIAALYWGHSFCAGSLIAPCWVLTAAHCLQDRPAPEDLTVVLGQERRNHSCEPCQTLAVRSYRLHEAFSPVSYQHDLALLRLQEDADGSCALLSPYVQPVCLPSGAARPSETTLCQVAGWGHQFEGAEEYASFLQEAQVPFLSLERCSAPDVHGSSILPGMLCAGFLEGGTDACQGDSGGPLVCEDQAAERRLTLQGIISWGSGCGDRNKPGVYTDVAYYLAWIREHTVS
[6]
  stoichiometry N: 1 Tf per FXIIa
[7]
  Kd: 13.9 nM
  koff: 0.0025 s⁻¹
  kon: 180000 M⁻¹ s⁻¹

## RRNHSCEPCQTLAVRSYR [FX18]
[5]
  Kd: 143 nM
  koff: 0.0004 s⁻¹
  kon: 2800 M⁻¹ s⁻¹
